# Test results as given in IntAct's records for PubMed 31515488.
# B1: Hypoxia-inducible factor 1-alpha inhibitor (Homo sapiens), Q9NWT6 (parent)
# chain: MAATAAEAVASGSGEPREEAGALGPAWDESQLRSYSFPTRPIPRLSQSDPRAEELIENEEPVVLTDTNLVYPALKWDLEYLQENIGNGDFSVYSASTHKFLYYDEKKMANFQNFKPRSNREEMKFHEFVEKLQDIQQRGGEERLYLQQTLNDTVGRKIVMDFLGFNWNWINKQQGKRGWGQLTSNLLLIGMEGNVTPAHYDEQQNFFAQIKGYKRCILFPPDQFECLYPYPVHHPCDRQSQVDFDNPDYERFPNFQNVVGYETVVGPGDVLYIPMYWWHHIESLLNGGITITVNFWYKGAPTPKRIEYPLKAHQKVAIMRNIEKMLGEALGNPQEVGPLLNTMIKGRYN
# partner: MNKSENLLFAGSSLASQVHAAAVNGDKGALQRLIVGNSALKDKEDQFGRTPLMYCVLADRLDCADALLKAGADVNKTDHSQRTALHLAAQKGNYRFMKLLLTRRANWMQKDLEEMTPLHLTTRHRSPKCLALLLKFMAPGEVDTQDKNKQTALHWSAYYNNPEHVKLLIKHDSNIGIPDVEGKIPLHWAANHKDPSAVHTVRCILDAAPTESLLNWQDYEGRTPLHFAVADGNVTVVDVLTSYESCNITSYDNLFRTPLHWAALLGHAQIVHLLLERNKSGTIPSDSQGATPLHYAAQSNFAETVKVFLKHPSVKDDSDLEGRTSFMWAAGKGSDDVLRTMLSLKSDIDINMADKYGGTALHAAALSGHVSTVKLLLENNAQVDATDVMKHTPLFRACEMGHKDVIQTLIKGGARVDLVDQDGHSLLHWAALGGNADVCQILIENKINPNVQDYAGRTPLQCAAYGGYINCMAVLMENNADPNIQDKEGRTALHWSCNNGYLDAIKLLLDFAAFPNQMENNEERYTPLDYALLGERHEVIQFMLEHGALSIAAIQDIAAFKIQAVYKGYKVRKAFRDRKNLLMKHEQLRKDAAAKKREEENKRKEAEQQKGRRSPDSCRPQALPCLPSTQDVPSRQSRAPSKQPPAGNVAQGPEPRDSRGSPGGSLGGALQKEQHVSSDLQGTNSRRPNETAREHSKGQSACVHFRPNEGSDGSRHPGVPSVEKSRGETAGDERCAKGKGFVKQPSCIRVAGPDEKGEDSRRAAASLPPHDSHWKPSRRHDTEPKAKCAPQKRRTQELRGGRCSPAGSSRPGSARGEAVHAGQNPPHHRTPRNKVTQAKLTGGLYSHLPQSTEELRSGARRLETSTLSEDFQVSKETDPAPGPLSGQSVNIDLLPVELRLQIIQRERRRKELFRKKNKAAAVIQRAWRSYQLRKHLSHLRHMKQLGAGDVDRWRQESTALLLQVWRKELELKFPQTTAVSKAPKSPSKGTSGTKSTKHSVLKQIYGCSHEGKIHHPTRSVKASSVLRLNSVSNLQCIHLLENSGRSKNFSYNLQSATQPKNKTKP
# B2: E3 ubiquitin-protein ligase SH3RF2 (Homo sapiens), Q8TEC5 (parent)
# chain: MDDLTLLDLLECPVCFEKLDVTAKVLPCQHTFCKPCLQRVFKAHKELRCPECRTPVFSNIEALPANLLLVRLLDGVRSGQSSGRGGSFRRPGTMTLQDGRKSRTNPRRLQASPFRLVPNVRIHMDGVPRAKALCNYRGQNPGDLRFNKGDIILLRRQLDENWYQGEINGISGNFPASSVEVIKQLPQPPPLCRALYNFDLRGKDKSENQDCLTFLKDDIITVISRVDENWAEGKLGDKVGIFPILFVEPNLTARHLLEKNKGRQSSRTKNLSLVSSSSRGNTSTLRRGPGSRRKVPGQFSITTALNTLNRMVHSPSGRHMVEISTPVLISSSNPSVITQPMEKADVPSSCVGQVSTYHPAPVSPGHSTAVVSLPGSQQHLSANMFVALHSYSAHGPDELDLQKGEGVRVLGKCQDGWLRGVSLVTGRVGIFPNNYVIPIFRKTSSFPDSRSPGLYTTWTLSTSSVSSQGSISEGDPRQSRPFKSVFVPTAIVNPVRSTAGPGTLGQGSLRKGRSSMRKNGSLQRPLQSGIPTLVVGSLRRSPTMVLRPQQFQFYQPQGIPSSPSAVVVEMGSKPALTGEPALTCISRGSEAWIHSAASSLIMEDKEIPIKSEPLPKPPASAPPSILVKPENSRNGIEKQVKTVRFQNYSPPPTKHYTSHPTSGKPEQPATLKASQPEAASLGPEMTVLFAHRSGCHSGQQTDLRRKSALGKATTLVSTASGTQTVFPSK
# partner: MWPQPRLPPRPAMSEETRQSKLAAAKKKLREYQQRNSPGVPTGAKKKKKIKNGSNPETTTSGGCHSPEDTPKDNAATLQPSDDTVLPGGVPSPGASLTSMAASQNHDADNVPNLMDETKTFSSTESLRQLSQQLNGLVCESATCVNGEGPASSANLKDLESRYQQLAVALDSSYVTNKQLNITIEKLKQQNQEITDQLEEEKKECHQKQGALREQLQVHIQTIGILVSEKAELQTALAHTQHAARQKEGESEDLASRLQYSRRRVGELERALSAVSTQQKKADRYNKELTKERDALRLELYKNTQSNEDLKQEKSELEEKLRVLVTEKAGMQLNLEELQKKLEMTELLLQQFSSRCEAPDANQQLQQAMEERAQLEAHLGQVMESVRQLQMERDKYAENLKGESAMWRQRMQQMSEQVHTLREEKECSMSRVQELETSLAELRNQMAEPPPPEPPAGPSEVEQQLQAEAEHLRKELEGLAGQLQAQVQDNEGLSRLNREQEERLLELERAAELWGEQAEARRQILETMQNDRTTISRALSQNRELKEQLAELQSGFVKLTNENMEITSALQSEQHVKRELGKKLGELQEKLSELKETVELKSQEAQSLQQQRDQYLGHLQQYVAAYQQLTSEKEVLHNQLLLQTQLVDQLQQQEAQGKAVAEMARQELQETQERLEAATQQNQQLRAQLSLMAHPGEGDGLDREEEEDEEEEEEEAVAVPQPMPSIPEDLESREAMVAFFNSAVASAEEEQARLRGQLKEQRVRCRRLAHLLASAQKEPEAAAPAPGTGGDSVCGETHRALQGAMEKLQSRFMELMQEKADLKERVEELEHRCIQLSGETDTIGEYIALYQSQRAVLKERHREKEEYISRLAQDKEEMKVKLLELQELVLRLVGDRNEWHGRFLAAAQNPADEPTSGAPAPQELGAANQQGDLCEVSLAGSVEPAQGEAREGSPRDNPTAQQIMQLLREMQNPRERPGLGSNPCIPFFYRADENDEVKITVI
# B3: BRCA1-A complex subunit RAP80 (Homo sapiens), Q96RL1-2 (parent)
# chain: MPRRKKKVKEVSESRNLEKKDVETTSSVSVKRKRRLEDAFIVISDSDGEEPKEENGLQKTKTKQSNRAKCLAKRKIAQMTEEEQFALALKMSEQEAREVNSQEEEEEELLRKAIAESLNSCRPSDASATRSRPLATGPSSQSHQEKTTDSGLTEGIWQLVPPSLFKGSHISQGNEAEEREEPWDHTEKTEEEPVSGSSGSWDQSSQPVFENVNVKSFDRCTGHSAEHTQCGKPQSSQGIVEETSEEGNSVPASQSVAALTSKRSLVLMPESSAEEITVCPETQLSSSETFDLEREVSPGSRDILDGVRIIMADKEVGNKEDAEKEVAISTFSSSNQVSCPLCDQCFPPTKIERHAMYCNGLMEEDTVLTRRQKEAKTKSDSGTAAQTSLDIDKNEKCYLCKSLVPFREYQCHVDSCLQLAKADQGDGPEGSGRACSTVEGKWQQRLKNPKEKGHSEGRLLSFLEQSEHKTSDADIKSSETGAFRVPSPGMEEAGCSREMQSSFTRRDLNESPVKSFVSISEATDCLVDFKKQVTVQPGSRTRTKAGRGRRRKF
# partner: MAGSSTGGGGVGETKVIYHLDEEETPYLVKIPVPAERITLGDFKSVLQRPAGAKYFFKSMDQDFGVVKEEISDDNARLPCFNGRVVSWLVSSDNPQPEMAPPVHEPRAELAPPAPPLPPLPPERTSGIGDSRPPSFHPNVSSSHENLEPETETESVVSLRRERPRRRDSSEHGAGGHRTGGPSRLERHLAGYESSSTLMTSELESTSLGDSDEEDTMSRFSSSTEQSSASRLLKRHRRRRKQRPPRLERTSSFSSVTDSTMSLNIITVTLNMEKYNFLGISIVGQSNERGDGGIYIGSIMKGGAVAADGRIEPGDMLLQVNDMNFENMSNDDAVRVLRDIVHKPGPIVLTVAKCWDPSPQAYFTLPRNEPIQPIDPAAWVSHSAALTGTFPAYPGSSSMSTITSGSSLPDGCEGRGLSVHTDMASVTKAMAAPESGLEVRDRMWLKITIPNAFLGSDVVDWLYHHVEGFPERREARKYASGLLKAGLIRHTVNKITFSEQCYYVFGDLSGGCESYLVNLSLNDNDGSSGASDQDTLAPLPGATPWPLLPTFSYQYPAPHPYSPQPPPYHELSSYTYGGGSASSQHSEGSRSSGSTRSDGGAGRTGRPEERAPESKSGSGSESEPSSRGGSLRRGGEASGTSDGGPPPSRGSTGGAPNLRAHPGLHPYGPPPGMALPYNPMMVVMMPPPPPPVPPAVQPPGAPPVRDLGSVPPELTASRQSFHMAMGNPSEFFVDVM
# B4: E3 ubiquitin-protein ligase TRIM9 (Homo sapiens), Q9C026-5 (parent)
# chain: MEEMEEELKCPVCGSFYREPIILPCSHNLCQACARNILVQTPESESPQSHRAAGSGVSDYDYLDLDKMSLYSEADSGYGSYGGFASAPTTPCQKSPNGVRVFPPAMPPPATHLSPALAPVPRNSCITCPQCHRSLILDDRGLRGFPKNRVLEGVIDRYQQSKAAALKCQLCEKAPKEATVMCEQCDVFYCDPCRLRCHPPRGPLAKHRLVPPAQGRVSRRLSPRKVSTCTDHELENHSMYCVQCKMPVCYQCLEEGKHSSHEVKALGAMWKLHKSQLSQALNGLSDRAKEAKEFLVQLRNMVQQIQENSVEFEACLVAQCDALIDALNRRKAQLLARVNKEHEHKLKVVRDQISHCTVKLRQTTGLMEYCLEVIKENDPSGFLQISDALIRRVHLTEDQWGKGTLTPRMTTDFDLSLDNSPLLQSIHQLDFVQVKASSPVPATPILQLEECCTHNNSATLSWKQPPLSTVPADGYILELDDGNGGQFREVYVGKETMCTVDGLHFNSTYNARVKAFNKTGVSPYSKTLVLQTSEGKALQQYPSERELRGI
# B5: Protein SSX3 (Homo sapiens), Q99909 (parent)
# chain: MNGDDTFARRPTVGAQIPEKIQKAFDDIAKYFSKEEWEKMKVSEKIVYVYMKRKYEAMTKLGFKAILPSFMRNKRVTDFQGNDFDNDPNRGNQVQRPQMTFGRLQGIFPKIMPKKPAEEGNVSKEVPEASGPQNDGKQLCPPGKPTTSEKINMISGPKRGEHAWTHRLRERKQLVIYEEISDPEEDDE
# B6: Transcription initiation factor IIA subunit 1 (Homo sapiens), P52655-1 (parent)
# chain: MANSANTNTVPKLYRSVIEDVINDVRDIFLDDGVDEQVLMELKTLWENKLMQSRAVDGFHSEEQQLLLQVQQQHQPQQQQHHHHHHHQQAQPQQTVPQQAQTQQVLIPASQQATAPQVIVPDSKLIQHMNASNMSAAATAATLALPAGVTPVQQILTNSGQLLQVVRAANGAQYIFQPQQSVVLQQQVIPQMQPGGVQAPVIQQVLAPLPGGISPQTGVIIQPQQILFTGNKTQVIPTTVAAPTPAQAQITATGQQQPQAQPAQTQAPLVLQVDGTGDTSSEEDEDEEEDYDDDEEEDKEKDGAEDGQVEEEPLNSEDDVSDEEGQELFDTENVVVCQYDKIHRSKNKWKFHLKDGIMNLNGRDYIFSKAIGDAEW
# Variants of: B1
# Conditions: with invs_human INVS
row,Variant,effect of a mutation on the interaction
1,P41A,with no effect

# Variants of: B2
# Conditions: with goga2_human GOLGA2, Q08379
row,Variant,effect of a mutation on the interaction
1,V687I,with no effect

# Variants of: B3
# Conditions: with dvl2_human DVL2, O14641
row,Variant,effect of a mutation on the interaction
1,MPRRKKKVKEVSESRNLEKKDVETTSSVSVKRKRRLEDAFIVISDSDEEEPKEENGLQKTKTKQSNRAKCLAKRKIAQMTEEEQFALALKMSEQEAREVNSQEEEEEELLRKAIAESLNSCRPSDASATRSRPLATGPSSQSHQEKTTDSGLTEGIWQLVPPSLFKGSHISQGNEAEEREEPWDHTEKTEEEPVSGSSGSWDQSSQPVFENVNVKSFDRCTGHSAEHTQCGKPQSSQGIVEETSEEGNSVPASQSVAALTSKRSLVLMPESSAEEITVCPETQLSSSETFDLEREVSPGSRDILDGVRIIMADKEVGNKEDAEKEVAISTFSSSNQVSCPLCDQCFPPTKIERHAMYCNGLMEEDTVLTRRQKEAKTKSDSGTAAQTSLDIDKNEKCYLCKSLVPFREYQCHVDSCLQLAKADQGDGPEGSGRACSTVEGKWQQRLKNPKEKGHSEGRLLSFLEQSEHKTSDADIKSSETGAFRVPSPGMEEAGCSREMQSSFTRRDLNESPVKSFVSISEATDCLVDFKKQVTVQPGSRTRTKAGRGRRRKF [G48E],with no effect

# Variants of: B4
# Conditions: with fbw1a_human BTRC
row,Variant,effect of a mutation on the interaction
1,L277F,with no effect

# Variants of: B5
# Conditions: with cep63_human CEP63, Q96MT8
# Sequence of cep63_human CEP63, Q96MT8 (Q96MT8 whole entry): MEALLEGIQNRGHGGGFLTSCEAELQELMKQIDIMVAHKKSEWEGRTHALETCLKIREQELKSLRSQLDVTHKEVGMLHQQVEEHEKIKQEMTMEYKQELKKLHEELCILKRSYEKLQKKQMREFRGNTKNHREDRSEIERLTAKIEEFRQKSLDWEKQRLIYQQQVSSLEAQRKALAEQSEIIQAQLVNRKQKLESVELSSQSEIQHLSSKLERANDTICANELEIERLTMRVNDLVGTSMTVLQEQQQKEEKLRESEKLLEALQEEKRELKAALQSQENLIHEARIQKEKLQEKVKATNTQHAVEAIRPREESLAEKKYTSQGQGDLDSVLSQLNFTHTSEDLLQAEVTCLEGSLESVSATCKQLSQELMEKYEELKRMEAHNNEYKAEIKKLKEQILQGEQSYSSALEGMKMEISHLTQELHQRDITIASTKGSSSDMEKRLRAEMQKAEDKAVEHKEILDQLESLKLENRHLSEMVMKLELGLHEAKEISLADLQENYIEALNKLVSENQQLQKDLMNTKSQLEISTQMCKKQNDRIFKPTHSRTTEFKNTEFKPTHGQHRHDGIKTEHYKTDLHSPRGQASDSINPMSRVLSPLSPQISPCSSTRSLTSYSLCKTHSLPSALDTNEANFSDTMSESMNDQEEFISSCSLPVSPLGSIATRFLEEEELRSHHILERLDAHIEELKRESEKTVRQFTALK
row,Variant,effect of a mutation on the interaction
1,MNGDDTFARRPTVGAQIPEKIQKAFDDIAKYFSKEEWEKMKVSEKIVYVYMKRKYEAMTKLGFKAILPSFMRNKRVTDFQGNDFDNDPNRGNQVQRPQMTFGRLQGIFPKIMPKKPAEEGNVSKEVPEASGPQNDGKQLCPPGKPTTSEKINMISGPKSGEHAWTHRLRERKQLVIYEEISDPEEDDE [R159S],with no effect
2,MNGDDTFARRPTVGAQIPEKIQKAFDDIAKYFSKEEWEKMKVSEKIVYVYMKRKYEAMTKLGFKAILPSFMRNKRVADFQGNDFDNDPNRGNQVQRPQMTFGRLQGIFPKIMPKKPAEEGNVSKEVPEASGPQNDGKQLCPPGKPTTSEKINMISGPKRGEHAWTHRLRERKQLVIYEEISDPEEDDE [T77A],with no effect

# Variants of: B6
# Conditions: with nfya_human NFYA
row,Variant,effect of a mutation on the interaction
1,MANSANTNTVPKLYRSVIEDVINDVRDIFVDDGVDEQVLMELKTLWENKLMQSRAVDGFHSEEQQLLLQVQQQHQPQQQQHHHHHHHQQAQPQQTVPQQAQTQQVLIPASQQATAPQVIVPDSKLIQHMNASNMSAAATAATLALPAGVTPVQQILTNSGQLLQVVRAANGAQYIFQPQQSVVLQQQVIPQMQPGGVQAPVIQQVLAPLPGGISPQTGVIIQPQQILFTGNKTQVIPTTVAAPTPAQAQITATGQQQPQAQPAQTQAPLVLQVDGTGDTSSEEDEDEEEDYDDDEEEDKEKDGAEDGQVEEEPLNSEDDVSDEEGQELFDTENVVVCQYDKIHRSKNKWKFHLKDGIMNLNGRDYIFSKAIGDAEW [L30V],with no effect
